The results in this text go back to patent US20090280488A1 (NATIONAL UNIVERSITY CORPORATION TOKYO MEDICAL AND DENTAL …, published 2009).

The chains are these.
B2: HMGB1-EGFP protein (rat HMGB1 expressed from pEGFP-N1-HMGB1) (other)
chain: MGKGDPKKPRGKMSSYAFFVQTCREEHKKKHPDASVNFSEFSKKCSERWKTMSAKEKGKFEDMAKADKARYEREMKTYIPPKGETKKKFKDPNAPKRPPSAFFLFCSEYRPKIKGEHPGLSIGDVAKKLGEMWNNTAADDKQPYEKKAAKLKEKYEKDIAAYRAKGKPDAAKKGVVKAEKSKKKKEEEDDEEDEEDEEEEEEEEDEDEEEDDDDE
notes: Expressed in HeLa cells by transfection; precipitated from the lysate with anti-HMGB or anti-EGFP antibody; The order HMGB1 then EGFP follows from the vector pEGFP-N1; HeLa cells also carry endogenous human HMGB1; also called HMGB-EGFP protein; not shown: EGFP and linker encoded by pEGFP-N1 (Clontech)
B3: HMGB2-EGFP protein (rat HMGB2 expressed from pEGFP-N1-HMGB2) (other)
chain: MGKGDPNKPRGKMSSYAFFVQTCREEHKKKHPDSSVNFAEFSKKCSERWKTMSAKEKSKFEDLAKSDKARYDREMKNYVPPKGDKKGKKKDPNAPKRPPSAFFLFCSEHRPKIKSEHPGLSIGDTAKKLGEMWSEQSAKDKQPYEQKAAKLKEKYEKDIAAYRAKGKSEVGKKGPGRPTGSKKKNEPEDEEEEEEEEDDEDEEEEDEDEE
notes: Expressed in HeLa cells by transfection; precipitated from the lysate with anti-HMGB or anti-EGFP antibody; The order HMGB2 then EGFP follows from the vector pEGFP-N1; also called HMGB-EGFP protein; not shown: EGFP and linker encoded by pEGFP-N1 (Clontech)

Common to all, as to test: co-immunoprecipitation from HeLa cell lysate with anti-HMGB or anti-EGFP antibody, blot with CAG53b
For assay [1], the target named is B2. How it is done: (§1) HeLa cells (1×10⁶) in a 10 cm dish were transfected with pEGFP-N1, pEGFP-N1-HMGB1 or pEGFP-N1-HMGB2 using SuperFect (invitrogen). The cells were also infected with adenoviral vectors (AxCAwt, AxCA-HMGB1, AxCA-HMGB2, AxCA-htt20Q, AxCA-htt111Q, AxCA-AT1-30Q or AxCA-AT1-82Q) in the same manner as described above. Immunoprecipitation was performed according to a known technique (Okazawa, H. et al., Neuron. 34, 701-713. (2002)). Specifically, collected HeLa cells were incubated at 4° C. in TNE buffer (10 mM Tris-HCl (pH7.8), […], 0.15M NaCl, 1 mM EDTA) for 1 hour and were then centrifuged at 17,400×g for 20 min. The supernatant was preincubated with protein G-Sepharose (Amersham Biosciences) at 4° C. for 2 hours and then centrifuged. The supernatant was incubated with anti-HMGB1 antibody (1:600, BD Biosciences), anti-HMGB2 antibody (1:600, BD Biosciences) or anti-GFP antibody (1:600, Clontech) overnight and was subsequently incubated with protein G-Sepharose for 2 hours. The protein G beads were collected by centrifugation (2,000×g) for 5 min and washed 5 times with TNE buffer. The bound proteins were eluted with a sample buffer, separated by SDS-PAGE, and blotted with CAG53b antibody (Scherzinger, E. et al., Cell. 90, 549-558. (1997)).
(§2) A plasmid pEGFP-N-1-HMGB1/2 was transfected into Hela cells and the cells were infected with an adenoviral vector designed to express normal or mutant polyglutamine protein. The cells expressed normal or mutant polyglutamine protein. The expression levels of polyglutamine protein and HMGB-EGFP protein were checked by Western blot using CAG53b antibody and anti-GFP antibody (left panel in FIG. 5). Immunoprecipitation was performed using anti-HMGB or anti-EGFP antibody. […] The pull-down assay using HeLa cells expressing polyglutamine protein indicated interaction between mutant polyglutamine protein and HMGB protein (FIG. 6).

Assay [2] deals with B3. How it is done:
as §1, §2

Assay [3] concerns the target T1, normal ataxin-1 (AT1-30Q) (human, UniProt P54253 1-815).
T1 construct: mature; Polyglutamine tract of 30 glutamines; also called normal AT1; normal polyglutamine protein
T1 sequence (looked up): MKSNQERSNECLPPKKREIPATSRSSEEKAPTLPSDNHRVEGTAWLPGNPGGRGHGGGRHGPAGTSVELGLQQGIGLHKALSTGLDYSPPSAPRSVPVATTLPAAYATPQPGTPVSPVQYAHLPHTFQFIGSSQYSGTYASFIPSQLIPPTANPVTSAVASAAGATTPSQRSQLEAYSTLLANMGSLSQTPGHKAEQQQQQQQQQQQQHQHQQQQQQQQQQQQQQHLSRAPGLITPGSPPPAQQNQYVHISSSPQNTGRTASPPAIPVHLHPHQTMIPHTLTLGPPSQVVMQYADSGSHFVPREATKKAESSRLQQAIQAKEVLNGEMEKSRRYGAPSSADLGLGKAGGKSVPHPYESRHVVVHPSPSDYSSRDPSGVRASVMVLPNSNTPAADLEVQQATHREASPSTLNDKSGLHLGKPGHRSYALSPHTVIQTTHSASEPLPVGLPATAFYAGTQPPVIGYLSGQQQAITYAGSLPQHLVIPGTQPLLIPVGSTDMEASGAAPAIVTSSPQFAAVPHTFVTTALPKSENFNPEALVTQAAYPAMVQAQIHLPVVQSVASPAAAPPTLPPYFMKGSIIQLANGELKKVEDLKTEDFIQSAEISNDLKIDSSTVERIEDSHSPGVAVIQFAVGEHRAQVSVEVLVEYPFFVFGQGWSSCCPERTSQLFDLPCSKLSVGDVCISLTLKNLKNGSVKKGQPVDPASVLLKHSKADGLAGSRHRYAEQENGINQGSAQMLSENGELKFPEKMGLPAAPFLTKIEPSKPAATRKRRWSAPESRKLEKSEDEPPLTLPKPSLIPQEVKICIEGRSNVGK
How it is done:
as §1, §2

B1: normal huntingtin (Htt20Q) (other, human, UniProt P42858 1-88, looked up)
chain: MATLEKLMKAFESLKSFQQQQQQQQQQQQQQQQQQQQQPPPPPPPPPPPQLPQPPPQAQPLLPQPQPPPPPPPPPPGPAVAEEPLHRP
notes: domain: exon I; Only exon I of huntingtin, with 20 glutamines; also called normal Htt; normal polyglutamine protein
Take B1: the binding result in assay [1] and in assay [2] was “no binding” throughout. Consider B2, for which the binding result in assay [3] was “no binding”. Same read-out and setting: the result for B3 reads “no binding”.
